Results taken from patent US20200010567A1 (NEURIMMUNE, published 2020).

Assays:
[1] = target: T1, (GA)15: H-CHHHHHH(GA)15-OH; experiment: indirect ELISA, coated uncoupled peptide
T1 construct: synthetic, not coupled to BSA; also called poly-GA DPR protein peptide
T1 peptide: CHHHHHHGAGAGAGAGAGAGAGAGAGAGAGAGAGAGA
Procedure: In brief, dipeptide repeat proteins were synthesized and purified by Schafer-N(Copenhagen, Denmark): (GA)₁₅: H-CHHHHHH(GA)₁₅-OH; (GP)₁₅: H-C(GP)₁₅-OH; (GR)₁₅: H-C(GR)₁₅-OH; (PA)₁₅: H-C(PA)₁₅-OH; (PR)₁₅: H—C(PR)₁₅-OH. 96-well microplates (Corning Incorporated, Corning, USA) were coated with dipeptide repeat protein peptides at a concentration of either 5 μg/ml or 20 μg/ml in coating buffer (15 mM Na₂CO₃, 35 mM NaHCO₃, pH 9.42). Non-specific binding sites were blocked for 1 h at room temperature with PBS/0.1% Tween®-20 containing 2% BSA (Sigma-Aldrich, Buchs, Switzerland). Primary antibodies were diluted to the indicated concentrations and incubated for 1 h at room temperature, followed by incubation with a donkey anti-human IgG Fcγ-specific antibody conjugated with HRP (Jackson ImmunoResearch Laboratories, Inc., West Grove, USA). Binding was determined by measurement of HRP activity in a standard colorimetric assay. EC₅₀ values were estimated by non-linear regression using GraphPad Prism software (San Diego, USA). The binding specificity and EC₅₀ of human-derived antibodies for C9orf72 dipeptide repeat protein peptides (GA)₁₅, (GP)₁₅, (GR)₁₅, (PA)₁₅ and (PR)₁₅ were determined by indirect ELISA.

GA10: H-(GA)10HHHHHH-NH2 [2] = target: T2, GA10: H-(GA)10HHHHHH-NH2 (C-terminal amide); experiment: indirect ELISA, coated His-tagged peptide
T2 peptide: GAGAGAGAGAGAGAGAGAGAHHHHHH
From the text: (§1) In brief, dipeptide repeat proteins were synthesized and purified by Schafer-N (Copenhagen, Denmark): GA₂₀: H-(GA)₂₀HHHHHH-NH₂; GA₁₀: H-(GA)₁₀HHHHHH-NH₂; GA₆: H-(GA)₆HHHHHH-NH₂; GA₅: H-(GA)₅HHHHHH-NH₂; GA₄: H-(GA)₄HHHHHH-NH₂; GA₃: H-(GA)₃HHHHHH-NH₂; GA₂: H-(GA)₂HHHHHH-NH₂; GP₂₀: H-(GP)₂₀HHHHHH-NH₂; GP₁₀: H-(GP)₁₀HHHHHH-NH₂; GP₆: H-(GP)₆HHHHHH-NH₂; GP₅: H-(GP)₅HHHHHH-NH₂; GP₄: H-(GP)₄HHHHHH-NH₂; GP₃: H-(GP)₃HHHHHH-NH₂; GP₂: H-(GP)₂HHHHHH-NH₂. GR₂₀: H-(GR)₂₀HHHHHH-NH₂; GR₁₀: H-(GR)₁₀HHHHHH-NH₂; GR₆: H-(GR)₆HHHHHH-NH₂; GR₅: H-(GR)₅HHHHHH-NH₂; GR₄: H-(GR)₄HHHHHH-NH₂; GR₃: H-(GR)₃HHHHHH-NH₂; GR₂: H-(GR)₂HHHHHH-NH₂; PA₂₀: H-(PA)₂₀HHHHHH-NH₂; PA₁₀: H-(PA)₁₀HHHHHH-NH₂; PA₆: H-(PA)₆HHHHHH-NH₂; PA₅: H-(PA)₅HHHHHH-NH₂; PA₄: H-(PA)₄HHHHHH-NH₂; PA₃: H-(PA)₃HHHHHH-NH₂; PA₂: H-(PA)₂HHHHHH-NH₂; PR₂₀: H-(PR)₂₀HHHHHH-NH₂; PR₁₀: H-(PR)₁₀HHHHHH-NH₂; PR₆: H-(PR)₆HHHHHH-NH₂; PR₅: H-(PR)₅HHHHHH-NH₂; PR₄: H-(PR)₄HHHHHH-NH₂; PR₃: H-(PR)₃HHHHHH-NH₂; PR₂: H-(PR)₂HHHHHH-NH₂. 96-well microplates (Corning Incorporated, Corning, USA) were coated with dipeptide repeat protein peptides at a concentration of 50 μg/ml in coating buffer (15 mM Na₂CO₃, 35 mM NaHCO₃, pH 9.42). Non-specific binding sites were blocked for 1 h at room temperature with PBS/0.1% Tween®-20 containing 2% BSA (Sigma-Aldrich, Buchs, Switzerland). Primary antibodies were diluted to the indicated concentrations and incubated 1 h at room temperature, followed by incubation with a donkey anti-human IgG Fcγ-specific antibody conjugated with HRP (Jackson ImmunoResearch Laboratories, Inc., West Grove, USA). Binding was determined by measurement of HRP activity in a standard colorimetric assay. EC₅₀ values were estimated by non-linear regression using GraphPad Prism software (San Diego, USA).

GA6: H-(GA)6HHHHHH-NH2 = target: T3, GA6: H-(GA)6HHHHHH-NH2; experiment: indirect ELISA, coated His-tagged peptide
T3 peptide: H-GAGAGAGAGAGAHHHHHH-NH2
From the text: as §1

GA10: H-(GA)10HHHHHH-NH2 [3] = target: T2, GA10: H-(GA)10HHHHHH-NH2; experiment: sandwich ELISA, peptide captured by anti-His antibody
From the text: (§2) In brief, His-tagged dipeptide repeat protein peptides were synthesized and purified by Schafer-N(Copenhagen, Denmark): GA₂₀: H-(GA)₂₀HHHHHH-NH₂; GA₁₀: H-(GA)₁₀HHHHHH-NH₂; GA₆: H-(GA)₆HHHHHH-NH₂; GA₅: H-(GA)₅HHHHHH-NH₂; GA₄: H-(GA)₄HHHHHH-NH₂; GA₃: H-(GA)₃HHHHHH-NH₂; GA₂: H-(GA)₂HHHHHH-NH₂; GP₂₀: H-(GP)₂₀HHHHHH-NH₂; GP₁₀: H-(GP)₁₀HHHHHH-NH₂; GP₆: H-(GP)₆HHHHHH-NH₂; GP₅: H-(GP)₅HHHHHH-NH₂; GP₄: H-(GP)₄HHHHHH-NH₂; GP₃: H-(GP)₃HHHHHH-NH₂; GP₂: H-(GP)₂HHHHHH-NH₂. 96-well microplates (Corning Incorporated, Corning, USA) were coated with monoclonal mouse anti-His tag antibody (Takara Bio Europe/Clontech, Saint-Germain-en-Laye, France) at a concentration of 10 μg/ml in coating buffer (15 mM Na₂CO₃, 35 mM NaHCO₃, pH 9.42) overnight at 4° C. Non-specific binding sites were blocked for 1 h at room temperature with PBS/0.1% Tween®-20 containing 2% BSA (Sigma-Aldrich, Buchs, Switzerland). After a washing step, His-tagged C9orf72 DPR protein peptides at equal concentration of either 1 μM or 5 μM in PBS (pH 7.4) were added for target-trapping by the anti-His tag antibody for 1 h at room temperature. […] Antibody binding to DPR protein peptides was detected by a donkey anti-human IgG Fcγ-specific antibody conjugated with HRP at 1:5000 dilution (Jackson ImmunoResearch Laboratories, Inc., West Grove, USA) for 1 h at RT. Binding was determined by measurement of HRP activity in a standard colorimetric assay. EC₅₀ values were estimated by non-linear regression using GraphPad Prism software (San Diego, USA).

GA20: H-(GA)20HHHHHH-NH2 = target: T4, GA20: H-(GA)20HHHHHH-NH2 (C-terminal amide); experiment: as above
T4 peptide: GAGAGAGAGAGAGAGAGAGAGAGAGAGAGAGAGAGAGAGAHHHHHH
From the text: as §2

B1: NI-308.5G2 (antibody, V domains shown)
VH: EVQLVQSGADLRNPGASVTVSCTASGYHFADNAINWLRQAPGQRLEWMGWINIYSGNTKYSQNFQGRVTFTRNTSASTAFMHLRSLRSEDTAVYFCARDPDSSGYYLPYFDYWGQGTLVTVSS
VL: DIQLTQSPDSLTLSLGERATINCKSSQSVFYNSNNKNYLAWYQQKPGQPPKLLMYWASTRESGVTDRFSGSGSGTDFTLTITNLQAEDVAVYYCQQFYSSPLTFGGGTKVEIK
notes: Recombinant complete human IgG1, kappa
[1]
  EC50: ~15.3 nM
GA10: H-(GA)10HHHHHH-NH2 [2]
  EC50: 5.7 nM
GA6: H-(GA)6HHHHHH-NH2
  EC50: > 200 nM

B2: NI-308.45C2 (antibody, V domains shown)
VH: QLQLQESGPGLVKPSQILSLTCAISGDSVFSNSAAWNWIRQSPSRGLEWLGRTYYRSKWDNDYAPSVKSRISINPDTSKNQFSLQLNSVTPEDTAVYYCAREVAYCGGDCYSVSFDYWGQGTLVTVSS
VL: not shown
notes: as for B1
GA10: H-(GA)10HHHHHH-NH2 [2]
  EC50: 7.6 nM
GA6: H-(GA)6HHHHHH-NH2
  EC50: > 200 nM

B3: NI-308.15O7 (antibody, V domains shown)
VH: QVQLVESGGGVVQPGRSLRLSCAASGFTFSNHAMHWVRQAPGKGLEWVAVISYDGENTYYADSIEGRFTISRDNFKNTLFLQMYSLTADDTAMYFCARGGRRGHFTSYYLDYWGQGTLVTVSS
VL: CDIQMTQSPSSLSASVGDRVTITCRASQNIDKYLNWYQQIPGKAPKLLIYAASSLHSGVPSRFSGSGSGTDFSLTISSLQPEDFAIYYCQQSYSSFRTFGQGTKLEIK
[1]
  EC50: 0.48 nM
GA10: H-(GA)10HHHHHH-NH2 [3]
  EC50: > 400 nM
GA20: H-(GA)20HHHHHH-NH2
  EC50: 9 nM

B4: NI-308.18F7 (antibody, V domains shown)
VH: QVQLQESGPGLVKPSETLSVTCTVSGGSINDYYWNWIRQPAGKGLEWIGRIYASGTINYNPSLQSRVTMSIDTSKNQFSLDLISVSAADTAVYYCARWGQVVGDYYYGMDVWGQGTTVTVSS
VL: EIVLTQSPLSLSVTPGEPASISCKSSQSLQHTNGYNYLDWYLLKPGQSPQLLIFLTSNRASGVPDRFSGSGSGTNFTLKISRVEAEDVGVYYCMEGIQLWTFGQGTKLEIK
notes: as for B1
[1]
  EC50: 1.5 nM
GA10: H-(GA)10HHHHHH-NH2 [2]
  EC50: 0.78 nM
GA6: H-(GA)6HHHHHH-NH2
  EC50: > 200 nM
GA10: H-(GA)10HHHHHH-NH2 [3]
  EC50: 0.34 nM
GA20: H-(GA)20HHHHHH-NH2
  EC50: 0.45 nM

B5: NI-308.28G1 (antibody, V domains shown)
VH: QVQLQESGPRLVKPSETLSLTCTVAGGSVNSYYWTWIQQSPGKGLEWLGRIYIAGRTNYNPSLTSRIALSVDTSRNQLSLKLTSVTAADTAIYYCARWGAESGDYYYGVDVWGPGTLVTVSS
VL: EIVMTQSPLSLPVTPGEPASISCKSSEGLLHSNGYTYLDWYLQKPGQAPQLLIFLASNRAAGVPDRFSGSGSGTDFTLKISRVEAEDVGVYYCMQAIQSPWTFGPGTKVEIK
notes: as for B1
[1]
  EC50: 1.1 nM
GA10: H-(GA)10HHHHHH-NH2 [2]
  EC50: 0.9 nM
GA10: H-(GA)10HHHHHH-NH2 [3]
  EC50: 0.46 nM
GA20: H-(GA)20HHHHHH-NH2
  EC50: 0.4 nM

B6: NI-308.6B11 (antibody, V domains shown)
VH: EVQLVQSGAEVKRPGASVKVSCKVSGYTLTELSMHWVRQAPGKGLEWMGGFDPEDGETVYAQKFQGRVTMTEDTSTDTAYMELSSLRSEDTALYHCATYGSSWHWNEGNEGSYYFDYWGQGTLVTVSS
VL: CDIQMTQSPSSLSASVGDRVTITCQASQDISIYLNWYQQKPGKAPKLLIYDASNLETGVPSRFSGSGSGTDFTFTISGLQPEDVARYYCQQYDDLPITFGQGTRLEIK
notes: as for B1
[1]
  EC50: ~38.4 nM
GA10: H-(GA)10HHHHHH-NH2 [2]
  EC50: 27.7 nM
GA6: H-(GA)6HHHHHH-NH2
  EC50: > 200 nM
